According to paper PMC2886590 (Journal of molecular biology, 2010):
Where no end group is shown, it is not given here.

Target: MLL PHD3 finger (residues 1565-1627), GST cleaved (human, UniProt Q03164 1565-1627)
Test: other fluorescence titration

MLL PHD3 finger (residues 1565-1627), GST cleaved, sequence (Q03164 1565-1627): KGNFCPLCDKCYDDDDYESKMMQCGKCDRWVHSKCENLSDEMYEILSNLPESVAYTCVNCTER

| fold lower affinity than for H3K4me3 | Binder |
| --- | --- |
| 53 fold | ARTK(Me)QTARKSTG [H3K4me1 peptide (12-mer histone tail peptide)] |
| 8 fold | ARTK(Me2)QTARKSTG [H3K4me2 peptide (12-mer histone tail peptide)] |
